Measured values published in patent US20240043504A1 (published 2024).
Changes are numbered by the printed parent chain. “And” between values parts separate entries of the source, which are not always exact repeats. Equal values may be shown once.

B1: mAb11006 (antibody, V domains shown)
VH: EVQLVESGGGLVQPGGSLRLSCAASGFIVSRNYMSWVRQAPGKGLEWVSVIYSGGSTFYADSVKGRFTISRHNSKNTLYLQMNSLKAEDTAVYYCARELRGYFDYWGQGTLVTVSS
VL: DIQLTQSPSFLSASVGDRVTITCWASQGISSYLAWYQQKPGKAPKLLIYAASTLQSGVPSRFSGSGSGTEFTLTISSLQPEDFATYYCQLLNSYPYTFGQGTKLEIKR
B2: mAb11008 (antibody, V domains shown)
VH: EVQLVESGGGLVQPGGSLRLSCAASGFTVSSNYMTWVRQAPGKGLEWVSVIYSGGSTFYADSVKGRFTISRHNSENTLYLQMNSLRAEDTAVYYCARDLAAAGTDYWGQGALVTVSS
VL: B1 VL with E81D, L90H, P95L
B3: mAb10957 (antibody, V domains shown)
VH: EVQLVESGGGLVQPGGSLRLSCAASGVTVSSNYMSWVRQAPGKGLEWVSVIYSGGSTFYADSVKGRFTISRDNSKNTLFLQMNSLRIEDTAVYYCARDLGPYGMDVWGQGTTVTVSS
VL: DIQLTQSPSFLSASVGDRVTITCRASQGISSYLAWYQQKPGKAPKLLIYAASTLQSGVPSRFSGSGSGTQFILTISSLQPEDFATYYCQQLNSYPGFTFGPGTKVDIKR
B4: mAb10971 (antibody, V domains shown)
VH: B3 VH with V12I, A60S, T68S, F79Y, I87A, G100Y, P101Y
VL: B3 VL with S31T, Q70E, I72T, N92D, F97L, P101G, D106E
B5: mAb10965 (antibody, V domains shown)
VH: EVQLVESGGGLIQPGGSLRLSCAASVFTVSYNYMSWVRQAPGKGLEWVSVIYSGGSTYYADSVKGRFTISRDNSKNTLYLQMNSLRAEDTAVYYCARALPGWGGSFEYFDYWGQGTLVTVSS
VL: not shown
B6: mAb10964 (antibody, V domains shown)
VH: QVQLQESGPGLVKPSETLSLTCTVSGGSINNYYWIWIRQPPGKGLEWIGYIYHSGSTNYNPSLKSRVTISVDTSKNQFSLKVSSVTAADTAVYYCANMVRGVYEDDYWGQGTLVTVSS
VL: DIQMTQSPSSLSASVGDRVTITCRASQSISNYLNWYQQKPGKAPKLLIFAASSLRSGVPSRFSGSGSGTDFTLTISSLHPEDFATYYCQQNYNTPLTFGPGTKVDIKR
B7: mAb10967 (antibody, V domains shown)
VH: EVQLVESGGGLVQPGGSLRLSCAASGFTVSSNYMSWVRQAPGKGLEWVSVIYPGGSTFYADSVKGRFTISRDNSKNTLYLQMNSLRAEDTAVYYCARDQRDFAWGQGTLVTVSS
VL: DIQMTQSPSSLSASVGDRVTITCQASQDISNYLNWYQQKPGKAPKLLIYDASNLETGVPSRFSGSGSGTDFTFTISGLQPEDIATYYCQQYDNLPPTFGQGTRLEIKR
B8: mAb10998 (antibody, V domains shown)
VH: EVQLVESGGGLVHPGGSLRLSCAASGLTVSSNYMSWVRQAPGKGLEWVSVIYSGGSTYYADSVKGRFTISRHNSKNTLFLQMNSLRAEDTAVYYCARDRPITGTTLDVWGQGTTVTVSS
VL: DIQMTQSPSSLFASVGDRVTITCRASQSISSYLNWYQQKPGKAPKLLIYAASSLQSGVPSRFSGSGSGTDFTLTISSLQPEDFAFYYCQQTYSTPPITFGQGTRLEIKR
B9: mAb10982 (antibody, V domains shown)
VH: EVQLVESGGGLVQPGGSLRLSCAASGLTVSSNYMSWVRQAPGKGLEWVSVIYSGGTTYYADSVKGRFTISRHNSKNTLSLQMNSLRAEDTAVYYCARGEGANYYGMDVWGQGTTVTVSS
VL: QSVLTQPPSVSGAPGQRVTISCTGSSSNIGTGYDVHWYQQLPGTAPKLLIYGNSNRPSGVPDRFSGSKSGTSASLAITGLQAEDEADYYCQSYDSSLSGYVVFGGGTKLTVLG
B10: mAb10986 (antibody, V domains shown)
VH: EVQLVESGGGLVQPGGSLRLSCAASEFTVSSNYMSWVRQAPGKGLEWVSVIYSGGSTFYADSVKGRFTISRDNSKNTLYLQMNSLRAEDTAVYYCARALPYGDLHFDYWGQGTLVTVSS
VL: B9 VL with S54T, G99D, Y100S, V101Y, G105T, L109V
B11: mAb10985 (antibody, V domains shown)
VH: EVQLVESGGGLVQPGRSLRLSCAASGFTFDDYAMHWVRQAPGKGLEWVSGISWNRGSIGYADSVKGRFTISRDNAKNSLYLQMSSLRAEDTALYYCAKDGERWDSVVVPSARNGMDVWGQGTTVTVSS
VL: B9 VL with T31A, Y100S, V101Y, G105T, L109V
B12: mAb10984 (antibody, V domains shown)
VH: EVQLVESGGGLVQPGGSLRLSCAASGLTVNRNYMSWVRQAPGKGLEWVSLIYSGGSTYYADSVKGRFTISRDNSKNTLYLQMNSLRLEDTAVYYCARGELGIPYGMDVWGQGTTVTVSS
VL: QSVLTQPPSVSAAPGQKVTISCSGSSSNIGNNYVSWYQQLPGTAPKLLIYDNNKRPSGIPDRFSGSKSGTSATLGITGLQTGDEADYYCGTWDSSLSAGVFGGGTKLTVLG
B13: mAb10966 (antibody, V domains shown)
VH: EVQLVESGGGLVQPGGSLRLSCAASGLTVSSNYMSWVRQAPGKGLEWVSVIYSGGSTFYADSVKGRFTISRDNSKNTLYLQMNSLRPEDTAVYYCAREGRIAATGYGMDVWGQGTTVTVSS
VL: not shown
B14: mAb10969 (antibody, V domains shown)
VH: QVQLVESGGGVVQPGRSLRLSCAASGFTFSSYAMHWVRQAPGKGLEWVAVISYDGSNKYYADSVKGRFTISRDNSKNTLYLQMNSLRAEDTAVYYCARDGRTITMVRGVIDDAFDIWGQGTMVTVSS
VL: not shown
B15: mAb11010 (antibody, V domains shown)
VH: QVQLVESGGGVVQPGRSLRLSCAASGFTFSSYGMHWVRQAPGKGLEWVAVISYDGSYKYYADSVKGRFTISRDNSKNTLYLQMNSLRAEDTAVYYCAIDGGTVTTIFDYWGQGTLVTVSS
VL: not shown
B16: mAb10971 (antibody, V domains shown)
VH: B3 VH with V12I, A60S, T68S, F79Y, I87A, G100Y, P101Y
VL: B3 VL with S31T, Q70E, I72T, N92D, F97L, P101G, D106E
B17: mAb10932 (antibody, V domains shown)
VH: EVQLVESGGGLVQSGGSLRLSCAASGLTVSSNYMSWVRQAPGKGLEWVSVIYSGGSTFYSDSVKGRFTISRHNSKNTLYLQMNSLRAEDTAVYYCARARGDAFDIWGQGTMVTVSS
VL: not shown
B18: mAb10965 (antibody, V domains shown)
VH: B5 VH
VL: not shown
B19: mAb10964 (antibody, V domains shown)
VH: B6 VH
VL: B6 VL
B20: mAb10989 (antibody, V domains shown)
VH: QVQLVQSGAEVKKPGASVKVSCKASGYIFTGYYMHWVRQAPGQGLEWMGWINPNSGGANYAQKFQGRVTLTRDTSITTVYMELSRLRFDDTAVYYCARGSRYDWNQNNWFDPWGQGTLVTVSS
VL: QSALTQPASVSGSPGQSITISCTGTSSDVGTYNYVSWYQQHPGKAPKLMIFDVSNRPSGVSDRFSGSKSGNTASLTISGLQAEDEADYYCSSFTTSSTVVFGGGTKLTVLG
B21: mAb10967 (antibody, V domains shown)
VH: B7 VH
VL: B7 VL
B22: mAb10954 (antibody, V domains shown)
VH: EVQLVESGGGLVQPGGSLRLSCAASGITVSSNYMSWVRQAPGKGLEWVSLIYSGGSTYYADSVKGRFTISRDNSKNTLYLQMNSLRVEDTAVYYCARDHGMAAAGYNYWGQGTLVTVSS
VL: B7 VL with S30N, N31K, S76N, G77S, I83F, Y87F, T97A, R103K, L104V
B23: mAb10939 (antibody, V domains shown)
VH: EVQLVESGGGLVQPGGSLRLSCAASGLTVSSNYMNWVRQVPGKGLEWVSVIYSGGSKFYVDSVKGRFTISRHNSKNTLYLQMNSLRPEDTAVYYCTRDAQYYGMDVWGQGTTVTVSS
VL: B8 VL with F12S, S31T, N34H, K42E, F85T, T91S, I97E, T98I, R104K
B24: mAb10966 (antibody, V domains shown)
VH: B13 VH
VL: not shown
B25: mAb10969 (antibody, V domains shown)
VH: B14 VH
VL: not shown

target: receptor binding domain (RBD) portion of the SARS-CoV-2 Spike protein (amino acids Arg319-Phe541) ex (SARS-CoV-2); experiment: not given

**Q.** Which IC50 does the source give for B1 here?
**A.** 0.22 nM

**Q.** How did the IC50 turn out when B2 was run?
**A.** 1.49 nM

**Q.** For B3, which IC50 is on record?
**A.** 0.169 nM

**Q.** B4 was tested. Which IC50 did it give?
**A.** 0.149 nM

**Q.** For B5, which IC50 is on record?
**A.** 0.213 nM

**Q.** Which IC50 does the source give for B6 here?
**A.** 0.0683 nM and 0.0625 nM

**Q.** Which IC50 does the source give for B7 here?
**A.** 0.28 nM

**Q.** With B8 as the binder, how does the IC50 read?
**A.** 4.3 nM

**Q.** How did the IC50 turn out when B9 was run?
**A.** 0.116 nM

**Q.** For B10, which IC50 is on record?
**A.** 0.0754 nM

**Q.** With B11 as the binder, how does the IC50 read?
**A.** 0.0696 nM and 0.0411 nM

**Q.** How did the IC50 turn out when B12 was run?
**A.** 0.0775 nM

**Q.** How did the IC50 turn out when B13 was run?
**A.** 0.16 nM

**Q.** With B14 as the binder, how does the IC50 read?
**A.** 0.215 nM

**Q.** For B15, which IC50 is on record?
**A.** 0.147 nM

target: SARS-CoV-2 Spike Protein (RBD)(R319-F541).mFc (SARS-CoV-2); experiment: Luminex, supernatant

**Q.** How did the MFI turn out when B16 was run?
**A.** 28700 MFI

**Q.** Which MFI does the source give for B17 here?
**A.** 30600 MFI

**Q.** B18 was tested. Which MFI did it give?
**A.** 27100 MFI

**Q.** Which MFI does the source give for B19 here?
**A.** 32400 MFI

**Q.** How did the MFI turn out when B20 was run?
**A.** 19600 MFI

**Q.** How did the MFI turn out when B21 was run?
**A.** 29600 MFI

**Q.** Which MFI does the source give for B22 here?
**A.** 31300 MFI

**Q.** B23 was tested. Which MFI did it give?
**A.** 33900 MFI

**Q.** B24 was tested. Which MFI did it give?
**A.** 30400 MFI

**Q.** B25 was tested. Which MFI did it give?
**A.** 31400 MFI

target: SARS-CoV-2 Spike Protein (RBD)(R319-F541).hFc (SARS-CoV-2); experiment: Luminex, supernatant

**Q.** With B16 as the binder, how does the MFI read?
**A.** 30000 MFI

**Q.** B17 was tested. Which MFI did it give?
**A.** 30600 MFI

**Q.** With B18 as the binder, how does the MFI read?
**A.** 29600 MFI

**Q.** Which MFI does the source give for B19 here?
**A.** 33100 MFI

**Q.** How did the MFI turn out when B20 was run?
**A.** 22400 MFI

**Q.** With B21 as the binder, how does the MFI read?
**A.** 28700 MFI

**Q.** B22 was tested. Which MFI did it give?
**A.** 31800 MFI

**Q.** How did the MFI turn out when B23 was run?
**A.** 32900 MFI

**Q.** B24 was tested. Which MFI did it give?
**A.** 30800 MFI
